Source: patent US11155602B2, “Polypeptides targeting HIV fusion” (priority 2015, dated 2021)

B1: 422 (protein)
chain: MGHHHHHHGVSDVPRDLEVVAATPTSLLISWKYKVHPYRYYRITYGETGGNSPVQEFTVPSVLSTATISGLKPGVDYTITVYAVTYGVNSLPISINYRTEIDGGGGSGGGGSGGGGSGGGGTEYEARIEALIRAAQEQQEKNEAALRELDK
modifications: Anti-N17 Adnectin - HIV fusion peptide inhibitor Combinectin
B2: 415 (protein)
chain: MGHHHHHHGVSDVPRDLEVVAATPTSLLISWDAPAVTVRYYRITYGETGGNSPVQEFTVPGSKSTATISGLKPGVDYTITVYAVTGRGESPASSKPISINYRTEIDGGGGSGGGGSGGGGSGGGGSRIEALIRAAQEQQEKNEAALRELFKWAS
modifications: Anti-N17 Adnectin - HIV fusion peptide inhibitor Combinectin
B3: 423 (protein)
chain: MGHHHHHHGVSDVPRDLEVVAATPTSLLISWDAPAVTVRYYRITYGETGGNSPVQEFTVPGSKSTATISGLKPGVDYTITVYAVTGRGESPASSKPISINYRTEIDGGGGSGGGGSGGGGSGGGGSRIEALIRAAQEQQEKNEAALRELYKWTS
modifications: Anti-N17 Adnectin - HIV fusion peptide inhibitor Combinectin
B4: 417 (protein)
chain: MGHHHHHHGVSDVPRDLEVVAATPTSLLISWDAPAVTVRYYRITYGETGGNSPVQEFTVPGSKSTATISGLKPGVDYTITVYAVTGRGESPASSKPISINYRTEIDGGGGSGGGGSGGGGSGGGGSRIEALIRAAQEQQEKNEAALRELYKWAS
modifications: Anti-N17 Adnectin - HIV fusion peptide inhibitor Combinectin
B5: 416 (protein)
chain: MGHHHHHHGVSDVPRDLEVVAATPTSLLISWDAPAVTVRYYRITYGETGGNSPVQEFTVPGSKSTATISGLKPGVDYTITVYAVTGRGESPASSKPISINYRTEIDGGGGSGGGGSGGGGSGGGGSRIEALIRAAQEQQQKNEAALRELDKWAS
modifications: Anti-N17 Adnectin - HIV fusion peptide inhibitor Combinectin
B6: 418 (protein)
chain: MGHHHHHHGVSDVPRDLEVVAATPTSLLISWDAPAVTVRYYRITYGETGGNSPVQEFTVPGSKSTATISGLKPGVDYTITVYAVTGRGESPASSKPISINYRTEIDGGGGSGGGGSGGGGSGGGGSRIEALIRAAQEQQEKNEAALRELLKWAS
modifications: Anti-N17 Adnectin - HIV fusion peptide inhibitor Combinectin
B7: 419 (protein)
chain: MGHHHHHHGVSDVPRDLEVVAATPTSLLISWDAPAVTVRYYRITYGETGGNSPVQEFTVPGSKSTATISGLKPGVDYTITVYAVTGRGESPASSKPISINYRTEIDGGGGSGGGGSGGGGSGGGGSRIEALIRAAQEQQEKNEAALRELQKWAS
modifications: Anti-N17 Adnectin - HIV fusion peptide inhibitor Combinectin
B8: 411 (protein)
chain: MGHHHHHHGGSVSDVPRDLEVVAATPTSLLISWEYKVNAYRYYRITYGETGGNSPVQEFTVPSVLSTATISGLKPGVDYTITVYAVTYGVDSDPISINYRTEIDGGGGSGGGGSGGGGSGGGGTIAEYAARIEALIRAAQEQQEKNEAALRELYKWAS
modifications: Anti-N17 Adnectin - HIV fusion peptide inhibitor Combinectin
B9: 425 (protein)
chain: MGHHHHHHGGSVSDVPRDLEVVAATPTSLLISWEYKVNAYRYYRITYGETGGNSPVQEFTVPSVLSTATISGLKPGVDYTITVYAVTYGVDSDPISINYRTEIDGGGGSGGGGSGGGGSGGGGTIAEYAARIEALIRAAQEQQEKNEAALRELYKWAS
modifications: Anti-N17 Adnectin - HIV fusion peptide inhibitor Combinectin
B10: 421 (protein)
chain: MGHHHHHHGVSDVPRDLEVVAATPTSLLISWVAGAEDYQYYRITYGETGGNSPVQEFTVPHDLVTATISGLKPGVDYTITVYAVTDMMHVEYTEHPISINYRTEIDGGGGSGGGGSGGGGSGGAIAEYAARIEALIRAAQEQQEKNEAALRELDKWAS
modifications: Anti-N17 Adnectin - HIV fusion peptide inhibitor Combinectin
B11: 413 (protein)
chain: MGHHHHHHGVSDVPRDLEVVAATPTSLLISWKYKVHPYRYYRITYGETGGNSPVQEFTVPSVLSTATISGLKPGVDYTITVYAVTYGVNSLPISINYRTEIDGGGGSGGGGSGGGGSGGGGTEYEARIEALIRAAQEQQEKNEAALRELKEWASIWN
modifications: Anti-N17 Adnectin - HIV fusion peptide inhibitor Combinectin
B12: 427 (protein)
chain: MGHHHHHHGVSDVPRDLEVVAATPTSLLISWKYKVHPYRYYRITYGETGGNSPVQEFTVPSVLSTATISGLKPGVDYTITVYAVTYGVNSLPISINYRTEIDGGGGSGGGGSGGGGSGGGGTEYEARIEALIRAAQEQQEKNEAALRELKEWASIWN
modifications: Anti-N17 Adnectin - HIV fusion peptide inhibitor Combinectin
B13: 420 (protein)
chain: MGHHHHHHGGSVSDVPRDLEVVAATPTSLLISWEYKVHPYRYYRITYGETGGNSPVQEFTVPSVLSTATISGLKPGVDYTITVYAVTYGDDSAPISINYRTEIDGGGGSGGGGSGGGGSGGGGSRIEALIRAAQEQQEKNEAALRELDKWAS
modifications: Anti-N17 Adnectin - HIV fusion peptide inhibitor Combinectin
B14: 424 (protein)
chain: MGHHHHHHGGSVSDVPRDLEVVAATPTSLLISWEYKVNAYRYYRITYGETGGNSPVQEFTVPSVLSTATISGLKPGVDYTITVYAVTYGVDSDPISINYRTEIDGGGGSGGGGSGGGGSGGGGARIEEYAARIEALIRAAQEQQEKNEAALRELYKWAS
modifications: Anti-N17 Adnectin - HIV fusion peptide inhibitor Combinectin
B15: 412 (protein)
chain: MGHHHHHHGGSVSDVPRDLEVVAATPTSLLISWEYKVNAYRYYRITYGETGGNSPVQEFTVPSVLSTATISGLKPGVDYTITVYAVTYGVDSDPISINYRTEIDGGGGSGGGGSGGGGSGGGGSEYEARIEALIRAAQEQQEKNEAALRELYKWAS
modifications: Anti-N17 Adnectin - HIV fusion peptide inhibitor Combinectin
B16: 426 (protein)
chain: MGHHHHHHGGSVSDVPRDLEVVAATPTSLLISWEYKVNAYRYYRITYGETGGNSPVQEFTVPSVLSTATISGLKPGVDYTITVYAVTYGVDSDPISINYRTEIDGGGGSGGGGSGGGGSGGGGSEYEARIEALIRAAQEQQEKNEAALRELYKWAS
modifications: Anti-N17 Adnectin - HIV fusion peptide inhibitor Combinectin
B17: 428 (protein)
chain: MGHHHHHHTSGVSDVPRDLEVVAATPTSLLISWDAPAVTVGWYHIGYNVEGEPASYQYFRVPGSKSTATISGLKPGVEYMIFVNAVTGSGAREEFSLPISINYRTEIDGGGGSGGGGSGGGGSGGGGSEYEARIEALIRAAQEQQEKNEAALRELDKWTGVWGNYEKV
modifications: Anti-N17 Adnectin - HIV fusion peptide inhibitor Combinectin
B18: 414 (protein)
chain: MGHHHHHHTSGVSDVPRDLEVVAATPTSLLISWDAPAVTVGWYHIGYNVEGEPASYQYFRVPGSKSTATISGLKPGVEYMIFVNAVTGSGAREEFSLPISINYRTEIDGGGGSGGGGSGGGGSGGGGSEYEARIEALIRAAQEQQEKNEAALRELDKWTGVWGNYEKV
modifications: Anti-N17 Adnectin - HIV fusion peptide inhibitor Combinectin

Each molecule was assayed on NL-Rluc virus (assay: Combinectin potency assay: antiviral EC50, NL-Rluc virus in MT-2 cells, luciferase readout). Conditions: Anti-N17 Adnectin - HIV fusion peptide inhibitor Combinectin, Table 4.
Assay type: cell-based, HIV-1
Summary of the method: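 Peptides, serially diluted threefold over 11 points in triplicate, were exposed for 4–5 days to MT-2 cells preinfected 1 h with NL-Rluc virus (MOI 0.01). Replication read out as Renilla luciferase signal, with EC50 derived against untreated infected controls.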

Molecule	EC50
B1	3 nM
B2	> 1000 nM
B3	122 nM
B4	428 nM
B5	> 1000 nM
B6	218 nM
B7	> 1000 nM
B8	4340 nM
B9	523 nM
B10	50 nM
B11	6 nM
B12	143 nM
B13	8 nM
B14	39 nM
B15	2980 nM
B16	139 nM
B17	50 nM
B18	4 nM
